Laboratory results from article PMC10786891, “Massively parallel profiling of RNA-targeting CRISPR-Cas13d”.
Substitutions are numbered along the chain they refer to. Numbers in names are those of the source.

T1: EsCas13d, nuclease-dead (Eubacterium siraeum, UniProt B0MS50, R295A;H300A;R849A;H854A)
T1 sequence: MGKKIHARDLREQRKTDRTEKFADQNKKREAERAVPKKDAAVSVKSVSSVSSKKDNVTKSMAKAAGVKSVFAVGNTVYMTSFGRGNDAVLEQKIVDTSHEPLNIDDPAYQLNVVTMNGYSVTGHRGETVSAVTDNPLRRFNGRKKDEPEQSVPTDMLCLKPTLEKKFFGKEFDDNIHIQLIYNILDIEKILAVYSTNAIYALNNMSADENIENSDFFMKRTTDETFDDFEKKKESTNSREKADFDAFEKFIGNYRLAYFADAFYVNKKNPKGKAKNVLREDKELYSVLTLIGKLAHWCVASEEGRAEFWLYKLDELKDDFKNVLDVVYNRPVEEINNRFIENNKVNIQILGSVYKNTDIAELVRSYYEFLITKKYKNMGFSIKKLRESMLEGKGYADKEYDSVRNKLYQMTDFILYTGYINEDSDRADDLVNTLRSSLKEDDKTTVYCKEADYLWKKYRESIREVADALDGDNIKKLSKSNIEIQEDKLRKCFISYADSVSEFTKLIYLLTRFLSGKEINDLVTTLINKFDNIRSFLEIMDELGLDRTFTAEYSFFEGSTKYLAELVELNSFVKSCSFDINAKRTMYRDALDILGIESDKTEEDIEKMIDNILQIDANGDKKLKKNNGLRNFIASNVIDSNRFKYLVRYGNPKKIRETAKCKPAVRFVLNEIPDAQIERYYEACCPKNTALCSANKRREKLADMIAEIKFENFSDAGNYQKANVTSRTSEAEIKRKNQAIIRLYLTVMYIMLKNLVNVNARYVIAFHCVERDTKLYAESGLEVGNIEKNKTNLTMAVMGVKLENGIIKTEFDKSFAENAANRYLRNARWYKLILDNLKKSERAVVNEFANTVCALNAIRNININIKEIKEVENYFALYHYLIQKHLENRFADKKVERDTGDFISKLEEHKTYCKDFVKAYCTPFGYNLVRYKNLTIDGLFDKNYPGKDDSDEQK

B1: target 1 insC 3' of 14 (mixed)
RNA 1: CACCCGUGCAAAAAUGCAGGGGUCUAAAACUGAGCGGAUAACCUCUCUAUGG
RNA 2: GGGAAUGGAUCCACAUCUACGAAUUCGUACCAUAGAGACGGUUAUCCGCUCACCGAGAUCGGAAGAGCACACGU
B2: target 1 A20U,C21A (mixed)
RNA 1: B1 RNA 1
RNA 2: GGGAAUGGAUCCACAUCUACGAAUUCGUACAUUAGAGAGGUUAUCCGCUCACCGAGAUCGGAAGAGCACACGU
B3: target 3 G3C,U8C (mixed)
RNA 1: CACCCGUGCAAAAUUGCAGGGGUCUAAAACGACCUGAAUAUUUCAGAUCAAA
RNA 2: GGGAAUGGAUCCACAUCUACGAAUUCGUUUUUGAUCUGAAAUACUCAGCUCUGCAGAUCGGAAGAGCACACGU
B4: target 3 insC 3' of 11 (mixed)
RNA 1: B3 RNA 1
RNA 2: GGGAAUGGAUCCACAUCUACGAAUUCGUUUUUGAUCUGAAACUAUUCAGGUCUGCAGAUCGGAAGAGCACACGU
B5: target 3 C1U,A12G (mixed)
RNA 1: B3 RNA 1
RNA 2: B3 RNA 2 with A40G, C44U, C49G, C51U
B6: target 3 C6G,A11G (mixed)
RNA 1: B3 RNA 1
RNA 2: B3 RNA 2 with A41G, C44U, C46G, C49G
B7: target 3 insG 3' of 8,insG 3' of 7 (mixed)
RNA 1: B3 RNA 1
RNA 2: GGGAAUGGAUCCACAUCUACGAAUUCGUUUUUGAUCUGAAAUAUGUGCAGGUCUGCAGAUCGGAAGAGCACACGU
B8: target 3 insA 3' of 15,insU 3' of 1 (mixed)
RNA 1: B3 RNA 1
RNA 2: GGGAAUGGAUCCACAUCUACGAAUUCGUUUUUGAUCUAGAAAUAUUCAGGUCUUGCAGAUCGGAAGAGCACACGU
B9: target 3 C1G (mixed)
RNA 1: B3 RNA 1
RNA 2: B3 RNA 2 with C44U, C49G, C51G
B10: target 3 del8,del22 (mixed)
RNA 1: B3 RNA 1
RNA 2: GGGAAUGGAUCCACAUCUACGAAUUCGUUUUGAUCUGAAAUAUCAGGUCUGCAGAUCGGAAGAGCACACGU
B11: target 3 insG 3' of 11,insU 3' of 4 (mixed)
RNA 1: B3 RNA 1
RNA 2: B8 RNA 2 with A38G, G39A, A42G, G50U, U51G, C52U, U53C
B12: target 3 insU 3' of 3,insA 3' of 3 (mixed)
RNA 1: B3 RNA 1
RNA 2: B7 RNA 2 with G45U, U46C, G47A, C48G, A49G, G50U, G51A
B13: target 3 insU 3' of 22,insU 3' of 22 (mixed)
RNA 1: B3 RNA 1
RNA 2: GGGAAUGGAUCCACAUCUACGAAUUCGUUUUUUUGAUCUGAAAUAUUCAGGUCUGCAGAUCGGAAGAGCACACGU
B14: target 3 U2C,U7G (mixed)
RNA 1: B3 RNA 1
RNA 2: B3 RNA 2 with C44U, U45G, C49G, U50C
B15: target 3 insG 3' of 16,insA 3' of 2 (mixed)
RNA 1: B3 RNA 1
RNA 2: B8 RNA 2 with U37G, A38U, C52A, U53C
B16: target 3 insU 3' of 5,insA 3' of 2 (mixed)
RNA 1: B3 RNA 1
RNA 2: B7 RNA 2 with G45U, U46C, G47A, C48U, A49G, G51U, U52A
B17: target 3 U21C (mixed)
RNA 1: B3 RNA 1
RNA 2: B3 RNA 2 with U31C, C44U, C49G
B18: target 3 C6U,A11C (mixed)
RNA 1: B3 RNA 1
RNA 2: B3 RNA 2 with A41C, C44U, C46U, C49G
B19: target 3 U2A,A12G (mixed)
RNA 1: B3 RNA 1
RNA 2: B3 RNA 2 with A40G, C44U, C49G, U50A
B20: target 3 insG 3' of 10,insU 3' of 3 (mixed)
RNA 1: B3 RNA 1
RNA 2: B8 RNA 2 with A38G, G39A, A42U, U43G, C52U, U53C
B21: target 3 C1U (mixed)
RNA 1: B3 RNA 1
RNA 2: B3 RNA 2 with C44U, C49G, C51U
B22: target 3 insA 3' of 22,insG 3' of 1 (mixed)
RNA 1: B3 RNA 1
RNA 2: B8 RNA 2 with U31A, G33U, A34G, U35A, C36U, U37C, A38U, U53G
B23: target 3 insU 3' of 22,insA 3' of 21 (mixed)
RNA 1: B3 RNA 1
RNA 2: B13 RNA 2 with U33A
B24: target 3 MT (mixed)
RNA 1: B3 RNA 1
RNA 2: B3 RNA 2 with C44U, C49G
B25: target 3 insA 3' of 22,insC 3' of 2 (mixed)
RNA 1: B3 RNA 1
RNA 2: B8 RNA 2 with U31A, G33U, A34G, U35A, C36U, U37C, A38U, U53C
B26: target 3 insG 3' of 9,insG 3' of 5 (mixed)
RNA 1: B3 RNA 1
RNA 2: B7 RNA 2 with U44G, G45U, G47C, C48A, A49G
B27: target 3 C1U,G3U (mixed)
RNA 1: B3 RNA 1
RNA 2: B3 RNA 2 with C44U, C49U, C51U
B28: target 3 del5 (mixed)
RNA 1: B3 RNA 1
RNA 2: GGGAAUGGAUCCACAUCUACGAAUUCGUUUUUGAUCUGAAAUAUUCGGUCUGCAGAUCGGAAGAGCACACGU

Molecular target: T1, EsCas13d, nuclease-dead
Test: crRNA (strand 1, pre-loaded); Mg2+; 40 mM Tris-HCl pH 7.5, 150 mM NaCl, 6 mM MgCl2, 1 mM DTT, 0.1% Tween-20, 0.2 mg/ml BSA; 25 C; 10 min per concentration, then washed
Conditions: tags: His6-TwinStrep-SUMO cleaved; N-terminal SNAP kept (SNAP-Surface 488); label: 3' end held by stalled T7 RNA polymerase

Binder | Kd
B1 | 43 ± 6 nM
B2 | 29 ± 5 nM
B3 | 71 ± 6 nM
B4 | 83.5 ± 29 nM
B5 | 60 ± 13.5 nM
B6 | 60 ± 18 nM
B7 | 37.4 ± 3.15 nM
B8 | 51 ± 5 nM
B9 | 28.8 ± 4.15 nM
B10 | 74.5 ± 13 nM
B11 | 55.5 ± 10.5 nM
B12 | 28.7 ± 3 nM
B13 | 24.1 ± 3 nM
B14 | 86 ± 33 nM
B15 | 75 ± 30 nM
B16 | 21.2 ± 3.65 nM
B17 | 71 ± 18 nM
B18 | 63 ± 17.6 nM
B19 | 38 ± 6 nM
B20 | 111 ± 28.5 nM
B21 | 25.1 ± 3.15 nM
B22 | 34.5 ± 7.5 nM
B23 | 28 ± 4 nM
B24 | 15.6 ± 0.185 nM
B25 | 84.5 ± 23.5 nM
B26 | 60 ± 13.5 nM
B27 | 45.5 ± 11.5 nM
B28 | 65.5 ± 12.5 nM
